# According to IntAct's records for PubMed 20098421:
# B1: Trinucleotide repeat-containing gene 6C protein (Homo sapiens), Q9HCJ0 (parent)
# chain: MEEKKKKKQEEKKKKEGAQKKAADQKTKVPEPTKTCSSQPQPAGTSTSTSTSTISSSNNGKRASASGQQPAASRYLPREVPPRFRQQEQKQLLKRGQPLPTGTLTSVSPTQGAGPAGVSPPPLPGAGTQHHPSKLQPDLSHSGLADHYENSHWGQQPTYRSEANCSWDKVIIDRTDKEAWPSITGTETESASECTTDTDSASNCGSENSSMATGSAQGNFTGHTKKTNGNNGTNGALVQSPSNQSALGAGGANSNGSAARVWGVATGSSSGLAHCSVSGGDGKMDTMIGDGRSQNCWGASNSNAGINLNLNPNANPAAWPVLGHEGTVATGNPSSICSPVSAIGQNMGNQNGNPTGTLGAWGNLLPQESTEPQTSTSQNVSFSAQPQNLNTDGPNNTNPMNSSPNPINAMQTNGLPNWGMAVGMGAIIPPHLQGLPGANGSSVSQVSGGSAEGISNSVWGLSPGNPATGNSNSGFSQGNGDTVNSALSAKQNGSSSAVQKEGSGGNAWDSGPPAGPGILAWGRGSGNNGVGNIHSGAWGHPSRSTSNGVNGEWGKPPNQHSNSDINGKGSTGWESPSVTSQNPTVQPGGEHMNSWAKAASSGTTASEGSSDGSGNHNEGSTGREGTGEGRRRDKGIIDQGHIQLPRNDLDPRVLSNTGWGQTPVKQNTAWEFEESPRSERKNDNGTEAWGCAATQASNSGGKNDGSIMNSTNTSSVSGWVNAPPAAVPANTGWGDSNNKAPSGPGVWGDSISSTAVSTAAAAKSGHAWSGAANQEDKSPTWGEPPKPKSQHWGDGQRSNPAWSAGGGDWADSSSVLGHLGDGKKNGSGWDADSNRSGSGWNDTTRSGNSGWGNSTNTKANPGTNWGETLKPGPQQNWASKPQDNNVSNWGGAASVKQTGTGWIGGPVPVKQKDSSEATGWEEPSPPSIRRKMEIDDGTSAWGDPSNYNNKTVNMWDRNNPVIQSSTTTNTTTTTTTTTSNTTHRVETPPPHQAGTQLNRSPLLGPVSSGWGEMPNVHSKTENSWGEPSSPSTLVDNGTAAWGKPPSSGSGWGDHPAEPPVAFGRAGAPVAASALCKPASKSMQEGWGSGGDEMNLSTSQWEDEEGDVWNNAASQESTSSCSSWGNAPKKGLQKGMKTSGKQDEAWIMSRLIKQLTDMGFPREPAEEALKSNNMNLDQAMSALLEKKVDVDKRGLGVTDHNGMAAKPLGCRPPISKESSVDRPTFLDKDGGLVEEPTPSPFLPSPSLKLPLSHSALPSQALGGIASGLGMQNLNSSRQIPSGNLGMFGNSGAAQARTMQQPPQPPVQPLNSSQPSLRAQVPQFLSPQVQAQLLQFAAKNIGLNPALLTSPINPQHMTMLNQLYQLQLAYQRLQIQQQMLQAQRNVSGSMRQQEQQVARTITNLQQQIQQHQRQLAQALLVKQPPPPPPPPHLSLHPSAGKSAMDSFPSHPQTPGLPDLQTKEQQSSPNTFAPYPLAGLNPNMNVNSMDMTGGLSVKDPSQSQSRLPQWTHPNSMDNLPSAASPLEQNPSKHGAIPGGLSIGPPGKSSIDDSYGRYDLIQNSESPASPPVAVPHSWSRAKSDSDKISNGSSINWPPEFHPGVPWKGLQNIDPENDPDVTPGSVPTGPTINTTIQDVNRYLLKSGGSSPPSSQNATLPSSSAWPLSASGYSSSFSSIASAPSVAGKLSDIKSTWSSGPTSHTQASLSHELWKVPRNSTAPTRPPPGLTNPKPSSTWGASPLGWTSSYSSGSAWSTDTSGRTSSWLVLRNLTPQIDGSTLRTLCLQHGPLITFHLNLTQGNAVVRYSSKEEAAKAQKSLHMCVLGNTTILAEFAGEEEVNRFLAQGQALPPTSSWQSSSASSQPRLSAAGSSHGLVRSDAGHWNAPCLGGKGSSELLWGGVPQYSSSLWGPPSADDSRVIGSPTPLTTLLPGDLLSGESL
# B2: Trinucleotide repeat-containing gene 6C protein (Homo sapiens), Q9HCJ0-1 (parent)
# chain: MATGSAQGNFTGHTKKTNGNNGTNGALVQSPSNQSALGAGGANSNGSAARVWGVATGSSSGLAHCSVSGGDGKMDTMIGDGRSQNCWGASNSNAGINLNLNPNANPAAWPVLGHEGTVATGNPSSICSPVSAIGQNMGNQNGNPTGTLGAWGNLLPQESTEPQTSTSQNVSFSAQPQNLNTDGPNNTNPMNSSPNPINAMQTNGLPNWGMAVGMGAIIPPHLQGLPGANGSSVSQVSGGSAEGISNSVWGLSPGNPATGNSNSGFSQGNGDTVNSALSAKQNGSSSAVQKEGSGGNAWDSGPPAGPGILAWGRGSGNNGVGNIHSGAWGHPSRSTSNGVNGEWGKPPNQHSNSDINGKGSTGWESPSVTSQNPTVQPGGEHMNSWAKAASSGTTASEGSSDGSGNHNEGSTGREGTGEGRRRDKGIIDQGHIQLPRNDLDPRVLSNTGWGQTPVKQNTAWEFEESPRSERKNDNGTEAWGCAATQASNSGGKNDGSIMNSTNTSSVSGWVNAPPAAVPANTGWGDSNNKAPSGPGVWGDSISSTAVSTAAAAKSGHAWSGAANQEDKSPTWGEPPKPKSQHWGDGQRSNPAWSAGGGDWADSSSVLGHLGDGKKNGSGWDADSNRSGSGWNDTTRSGNSGWGNSTNTKANPGTNWGETLKPGPQQNWASKPQDNNVSNWGGAASVKQTGTGWIGGPVPVKQKDSSEATGWEEPSPPSIRRKMEIDDGTSAWGDPSNYNNKTVNMWDRNNPVIQSSTTTNTTTTTTTTTSNTTHRVETPPPHQAGTQLNRSPLLGPGRKVSSGWGEMPNVHSKTENSWGEPSSPSTLVDNGTAAWGKPPSSGSGWGDHPAEPPVAFGRAGAPVAASALCKPASKSMQEGWGSGGDEMNLSTSQWEDEEGDVWNNAASQESTSSCSSWGNAPKKGLQKGMKTSGKQDEAWIMSRLIKQLTDMGFPREPAEEALKSNNMNLDQAMSALLEKKVDVDKRGLGVTDHNGMAAKPLGCRPPISKESSVDRPTFLDKDGGLVEEPTPSPFLPSPSLKLPLSHSALPSQALGGIASGLGMQNLNSSRQIPSGNLGMFGNSGAAQARTMQQPPQPPVQPLNSSQPSLRAQVPQFLSPQVQAQLLQFAAKNIGLNPALLTSPINPQHMTMLNQLYQLQLAYQRLQIQQQMLQAQRNVSGSMRQQEQQVARTITNLQQQIQQHQRQLAQALLVKQPPPPPPPPHLSLHPSAGKSAMDSFPSHPQTPGLPDLQTKEQQSSPNTFAPYPLAGLNPNMNVNSMDMTGGLSVKDPSQSQSRLPQWTHPNSMDNLPSAASPLEQNPSKHGAIPGGLSIGPPGKSSIDDSYGRYDLIQNSESPASPPVAVPHSWSRAKSDSDKISNGSSINWPPEFHPGVPWKGLQNIDPENDPDVTPGSVPTGPTINTTIQDVNRYLLKSGGKLSDIKSTWSSGPTSHTQASLSHELWKVPRNSTAPTRPPPGLTNPKPSSTWGASPLGWTSSYSSGSAWSTDTSGRTSSWLVLRNLTPQIDGSTLRTLCLQHGPLITFHLNLTQGNAVVRYSSKEEAAKAQKSLHMCVLGNTTILAEFAGEEEVNRFLAQGQALPPTSSWQSSSASSQPRLSAAGSSHGLVRSDAGHWNAPCLGGKGSSELLWGGVPQYSSSLWGPPSADDSRVIGSPTPLTTLLPGDLLSGESL
# Variants of: B1
# Conditions: with pabp1_human PABPC1, P11940
row,Variant,effect of a mutation on the interaction
1,E1595A;F1596A,disrupting interaction
2,W1602A;K1603A,disrupting interaction

# Variants of: B2
# Conditions: with pabp1_human PABPC1, P11940
# Target sequence in this assay (P11940 whole entry): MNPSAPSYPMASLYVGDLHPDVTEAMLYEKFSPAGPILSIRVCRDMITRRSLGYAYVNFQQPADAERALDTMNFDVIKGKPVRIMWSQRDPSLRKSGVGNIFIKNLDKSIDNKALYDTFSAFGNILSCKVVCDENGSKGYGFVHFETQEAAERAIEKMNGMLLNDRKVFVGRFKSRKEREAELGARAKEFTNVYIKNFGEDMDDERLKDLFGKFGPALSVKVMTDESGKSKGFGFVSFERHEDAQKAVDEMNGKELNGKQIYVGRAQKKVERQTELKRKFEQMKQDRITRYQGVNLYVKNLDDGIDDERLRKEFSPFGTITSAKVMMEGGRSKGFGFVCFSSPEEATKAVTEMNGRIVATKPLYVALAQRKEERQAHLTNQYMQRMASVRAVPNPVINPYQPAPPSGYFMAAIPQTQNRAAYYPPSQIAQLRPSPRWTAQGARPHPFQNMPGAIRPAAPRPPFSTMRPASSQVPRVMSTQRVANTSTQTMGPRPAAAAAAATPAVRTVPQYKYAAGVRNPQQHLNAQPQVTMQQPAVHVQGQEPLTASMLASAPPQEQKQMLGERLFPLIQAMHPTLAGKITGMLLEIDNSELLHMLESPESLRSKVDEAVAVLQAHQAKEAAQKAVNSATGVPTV
row,Variant,effect of a mutation on the interaction
1,E1388A;F1389A;W1395A;K1396A,disrupting interaction
